# Measured values as given in patent US20240124865.
# Where a chain is given by its changes, count along the chain named. Names and notes keep the numbering of the source.
# T1: FRETS-VWF73 substrate (VWF fragment comprising VWFA2 domain residues 1596 to 1668)
# T1 chain: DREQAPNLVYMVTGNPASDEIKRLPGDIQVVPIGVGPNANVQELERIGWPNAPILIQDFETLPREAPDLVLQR
# B1: ADAMTS13 A1144I variant (Exemplified A1144I variant) (protein)
# chain: AAGGILHLELLVAVGPDVFQAHQEDTERYVLTNLNIGAELLRDPSLGAQFRVHLVKMVILTEPEGAPNITANLTSSLLSVCGWSQTINPEDDTDPGHADLVLYITRFDLELPDGNRQVRGVTQLGGACSPTWSCLITEDTGFDLGVTIAHEIGHSFGLEHDGAPGSGCGPSGHVMASDGAAPRAGLAWSPCSRRQLLSLLSAGRARCVWDPPRPQPGSAGHPPDAQPGLYYSANEQCRVAFGPKAVACTFAREHLDMCQALSCHTDPLDQSSCSRLLVPLLDGTECGVEKWCSKGRCRSLVELTPIAAVHGRWSSWGPRSPCSRSCGGGVVTRRRQCNNPRPAFGGRACVGADLQAEMCNTQACEKTQLEFMSQQCARTDGQPLRSSPGGASFYHWGAAVPHSQGDALCRHMCRAIGESFIMKRGDSFLDGTRCMPSGPREDGTLSLCVSGSCRTFGCDGRMDSQQVWDRCQVCGGDNSTCSPRKGSFTAGRAREYVTFLTVTPNLTSVYIANHRPLFTHLAVRIGGRYVVAGKMSISPNTTYPSLLEDGRVEYRVALTEDRLPRLEEIRIWGPLQEDADIQVYRRYGEEYGNLTRPDITFTYFQPKPRQAWVWAAVRGPCSVSCGAGLRWVNYSCLDQARKELVETVQCQGSQQPPAWPEACVLEPCPPYWAVGDFGPCSASCGGGLRERPVRCVEAQGSLLKTLPPARCRAGAQQPAVALETCNPQPCPARWEVSEPSSCTSAGGAGLALENETCVPGADGLEAPVTEGPGSVDEKLPAPEPCVGMSCPPGWGHLDATSAGEKAPSPWGSIRTGAQAAHVWTPAAGSCSVSCGRGLMELRFLCMDSALRVPVQEELCGLASKPGSRREVCQAVPCPARWQYKLAACSVSCGRGVVRRILYCARAHGEDDGEEILLDTQCQGLPRPEPQEACSLEPCPPRWKVMSLGPCSASCGLGTARRSVACVQLDQGQDVEVDEAACAALVRPEASVPCLIADCTYRWHVGTWMECSVSCGDGIQRRRDTCLGPQAQAPVPADFCQHLPKPVTVRGCWAGPCVGQGTPSLVPHEEIAAPGRTTATPAGASLEWSQARGLLFSPAPQPRRLLPGPQENSVQSSACGRQHLEPTGTIDMRGPGQADCAVAIGRPLGEVVTLRVLESSLNCSAGDMLLLWGRLTWRKMCRKLLDMTFSSKTNTLVVRQRCGRPGGGVLLRYGSQLAPETFYRECDMQLFGPWGEIVSPSLSPATSNAGGCRLFINVAPHARIAIHALATNMGAGTEGANASYILIRDTHSLRTTAFHGQQVLYWESESSQAEMEFSEGFLKAQASLRGQYWTLQSWVPEMQDPQSWKGKEGTSRGPFEQKLISEEDLNMHTGHHHHHH
# B2: Myc/His6-tagged ADAMTS13 P1180V variant (Exemplified P1180V variant) (protein)
# chain: B1 chain with I1070A, P1106V
# B3: Myc/His6-tagged recombinant wildtype human ADAMTS13 (Exemplified wildtype ADAMTS13) (protein)
# chain: B1 chain with I1070A
# B4: Myc/His6-tagged ADAMTS13 A1144V variant (Exemplified A1144V variant) (protein)
# chain: B1 chain with I1070V
# B5: ADAMTS13 P1180K variant (Exemplified P1180K variant) (protein)
# chain: B1 chain with I1070A, P1106K
# B6: ADAMTS13 P1182K variant (Exemplified P1182K variant) (protein)
# chain: B1 chain with I1070A, P1108K
# B7: ADAMTS13 P1182I variant (Exemplified P1182I variant) (protein)
# chain: B1 chain with I1070A, P1108I
# B8: ADAMTS13 P1180I variant (Exemplified P1180I variant) (protein)
# chain: B1 chain with I1070A, P1106I
# B9: Myc/His6-tagged ADAMTS13 P1182V variant (Exemplified P1182V variant) (protein)
# chain: B1 chain with I1070A, P1108V
# B10: ADAMTS13 A1146I variant (Exemplified A1146I variant) (protein)
# chain: B1 chain with I1070A, A1072I
# B11: Myc/His6-tagged ADAMTS13 A1146V variant (Exemplified A1146V variant) (protein)
# chain: B1 chain with I1070A, A1072V
# Molecular target: T1, FRETS-VWF73 substrate (VWF fragment …)
Protein,"proteolytic activity, FRETS-VWF73 assay","proteolytic activity, FRETS-VWF73 assay, absence of VWF-D4CK, fold over wildtype ADAMTS13","proteolytic activity, FRETS-VWF73 assay, in the absence and in the presence of the activating VWF-D4CK fragment","proteolytic activity, FRETS-VWF73 assay, basal (no VWF-D4CK); reference for all other activities","proteolytic activity, FRETS-VWF73 assay, fold increase"
B1,"induces a similar constitutive activity to that seen with the A1144V, A1146V variants",,,,
B2,,more than 4-fold higher than wildtype ADAMTS13,displayed significantly higher proteolytic activity compared to wildtype ADAMTS13 and the R568K/F592Y/R660K/Y661F/Y665F variant,,
B3,,,,All activities are presented relative to the basal activity of wtADAMTS13 (100%),
B4,,more than 4-fold higher than wildtype ADAMTS13,displayed significantly higher proteolytic activity compared to wildtype ADAMTS13 and the R568K/F592Y/R660K/Y661F/Y665F variant,,
B5,,,,,Induces greater than 10-fold increase in activity
B6,,,,,Induces greater than 10-fold increase in activity
B7,,,,,Induces greater than 10-fold increase in activity
B8,,,,,Induces greater than 10-fold increase in activity
B9,,more than 4-fold higher than wildtype ADAMTS13,displayed significantly higher proteolytic activity compared to wildtype ADAMTS13 and the R568K/F592Y/R660K/Y661F/Y665F variant,,
B10,"induces a similar constitutive activity to that seen with the A1144V, A1146V variants",,,,
B11,,more than 4-fold higher than wildtype ADAMTS13,displayed significantly higher proteolytic activity compared to wildtype ADAMTS13 and the R568K/F592Y/R660K/Y661F/Y665F variant,,
